{"source": "patent US20250019439A1", "about": "(Adimab, published 2025)", "binders": {"B1": {"name": "ADI-34134 IgG (antibody, V domains shown)", "VH": "QVQLVQSGAEVKKPGSSVKVSCKASGGTFSSYAISWVRQAPGQGLEWMGGIIPIFGTANYAQKFQGRVTITADESTSTAYMELSSLRSEDTAVYYCARGAPNYYGSGGYDDGWFDPWGQGTLVTVSS", "VL": "EIVLTQSPGTLSLSPGERATLSCRASQSVSSDYLAWYQQKPGQAPRLLIYGASSRATGIPDRFSGSGSGTDFTLTISRLEPEDFAVYYCQQFGRVPTFGGGTKVEIK"}, "B2": {"name": "ADI-34145 IgG (antibody, V domains shown)", "VH": "EVQLLESGGGLVQPGGSLRLSCAASGFTFSSYAMSWVRQAPGKGLEWVSTISGSGGSTYYADSVKGRFTISRDNSKNTLYLQMNSLRAEDTAVYYCARLGGRRGSGSSYYYYYGMDVWGQGTTVTVSS", "VL": "not shown", "notes": "anti-ID IgG"}}, "key": {"[1]": {"molecular_target": "T1, ADI-76360", "T1 construct": "anti-CD3 antibody made in CHO cells, captured by anti-human Fc", "T1 sequence (VH, as listed by the source, chain 1 of 2)": "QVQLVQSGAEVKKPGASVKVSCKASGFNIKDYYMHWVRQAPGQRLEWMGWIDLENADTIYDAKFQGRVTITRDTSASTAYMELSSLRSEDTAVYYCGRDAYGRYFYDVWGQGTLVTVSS", "T1 sequence (VL, as listed by the source, chain 2 of 2)": "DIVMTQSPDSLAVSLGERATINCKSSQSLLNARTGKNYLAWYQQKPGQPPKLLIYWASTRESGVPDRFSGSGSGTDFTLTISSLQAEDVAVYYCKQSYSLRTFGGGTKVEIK", "experiment": "SPR Carterra avidity, CHO anti-ID", "procedure": "(§1) Kinetic analysis was conducted at 25° C. in an HBSTE running buffer system (Carterra Cat #3630) using a Carterra LSA (Carterra USA, Salt Lake City, UT). The sample compartment was maintained at 20° C. for the duration of each experiment.\n(§2) For antibody capture experiments, a goat anti-human Fc antibody (Jackson ImmunoResearch) was covalently coupled to an HC30M sensor chip surface via standard amine coupling (1:1 EDC:NHS) and then blocked with ethanolamine (1.0 M, pH 8.5). Covalent coupling steps were performed in 25 mM MES buffer (Carterra, Cat #3625) plus 0.05% Tween20. The anti-CD3 antibodies (100 nM in running buffer) were flowed over discrete regions of interest on the chip surface for 5 minutes. […] Dissociation of the anti-idiotype antibodies was monitored for 300s. Several blank buffer samples were injected over the entire chip surface at the start of each non-regenerative kinetic cycle. The preceding blank buffer injection was used for blank surface subtraction. At the end of each non-regenerative kinetic cycle, all surfaces were regenerated via two 30s injections of 10 mM glycine, pH 1.7.\n(§3) In Tables 10A-10C, anti-CD3 antibodies are listed by ADI number or CTL number in the first column. […] CTL-62223 is mosunetuzumab, CTL-62227 is odronextamab, CTL-62228 is glofitamab, and CTL-62240 is ONO-4685. […] “W.B.” means weak binding under the conditions of this assay and thus a KD was unable to be assigned. “N.B.” means no binding under the conditions of this assay."}, "[2]": {"molecular_target": "T2, ADI-48587", "T2 construct": "pH-dependent anti-CD3 antibody made in CHO cells", "T2 sequence (VH, as listed by the source, chain 1 of 2)": "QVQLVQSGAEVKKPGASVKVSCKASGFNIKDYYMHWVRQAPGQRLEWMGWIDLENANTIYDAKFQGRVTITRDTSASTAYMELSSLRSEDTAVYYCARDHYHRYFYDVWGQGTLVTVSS", "T2 sequence (VL, as listed by the source, chain 2 of 2)": "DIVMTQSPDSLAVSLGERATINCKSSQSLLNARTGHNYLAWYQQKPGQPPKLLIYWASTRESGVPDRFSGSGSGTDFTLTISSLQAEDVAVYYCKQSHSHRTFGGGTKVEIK", "experiment": "SPR Carterra avidity, CHO anti-ID", "procedure": "as §1, §2, §3"}, "[3]": {"molecular_target": "T3, ADI-76358", "T3 construct": "anti-CD3 antibody made in CHO cells, captured by anti-human Fc", "T3 sequence (VH, as listed by the source, chain 1 of 2)": "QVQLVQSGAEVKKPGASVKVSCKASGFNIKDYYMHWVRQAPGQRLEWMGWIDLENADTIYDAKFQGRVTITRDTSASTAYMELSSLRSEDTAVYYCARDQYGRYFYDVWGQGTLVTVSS", "T3 sequence (VL, as listed by the source, chain 2 of 2)": "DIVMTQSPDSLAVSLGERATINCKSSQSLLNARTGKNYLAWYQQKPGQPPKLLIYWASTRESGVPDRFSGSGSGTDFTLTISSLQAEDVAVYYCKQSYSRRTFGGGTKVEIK", "experiment": "SPR Carterra avidity, CHO anti-ID", "procedure": "as §1, §2, §3"}, "[4]": {"molecular_target": "T4, ADI-70330", "T4 construct": "anti-CD3 antibody made in CHO cells, captured by anti-human Fc", "T4 sequence (VH, as listed by the source limits assumed, chain 1 of 2)": "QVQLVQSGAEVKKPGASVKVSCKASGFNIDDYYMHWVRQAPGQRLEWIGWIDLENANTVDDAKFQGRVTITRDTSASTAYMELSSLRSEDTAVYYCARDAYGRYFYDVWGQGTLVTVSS", "T4 sequence (VL, as listed by the source limits assumed, chain 2 of 2)": "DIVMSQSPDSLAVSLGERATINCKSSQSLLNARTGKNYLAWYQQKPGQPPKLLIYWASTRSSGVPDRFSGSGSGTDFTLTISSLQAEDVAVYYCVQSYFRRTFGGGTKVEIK", "experiment": "SPR Carterra avidity, CHO anti-ID", "procedure": "as §1, §2, §3"}, "[5]": {"molecular_target": "T5, ADI-67450", "T5 construct": "anti-CD3 antibody made in CHO cells, captured by anti-human Fc", "T5 sequence (VH, as listed by the source limits assumed, chain 1 of 2)": "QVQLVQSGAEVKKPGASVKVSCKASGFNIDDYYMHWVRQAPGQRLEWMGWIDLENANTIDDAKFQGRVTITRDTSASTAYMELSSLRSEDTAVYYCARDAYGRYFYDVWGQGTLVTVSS", "experiment": "SPR Carterra avidity, CHO anti-ID", "procedure": "as §1, §2, §3"}, "[6]": {"molecular_target": "T6, ADI-76362", "T6 construct": "anti-CD3 antibody made in CHO cells, captured by anti-human Fc", "T6 sequence (VH, as listed by the source, chain 1 of 2)": "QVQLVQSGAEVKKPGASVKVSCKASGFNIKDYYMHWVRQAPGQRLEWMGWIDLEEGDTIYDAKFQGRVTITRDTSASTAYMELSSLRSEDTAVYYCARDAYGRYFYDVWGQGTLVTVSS", "experiment": "SPR Carterra avidity, CHO anti-ID", "procedure": "as §1, §2, §3"}, "[7]": {"molecular_target": "T7, ADI-70326", "T7 construct": "anti-CD3 antibody made in CHO cells, captured by anti-human Fc", "T7 sequence (VH, as listed by the source limits assumed, chain 1 of 2)": "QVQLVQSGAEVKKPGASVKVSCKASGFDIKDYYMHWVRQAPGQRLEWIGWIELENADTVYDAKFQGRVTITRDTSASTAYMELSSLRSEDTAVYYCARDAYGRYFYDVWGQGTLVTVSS", "experiment": "SPR Carterra avidity, CHO anti-ID", "procedure": "as §1, §2, §3"}, "[8]": {"molecular_target": "T8, CTL-19613 Fab", "T8 construct": "anti-CD3 Fab by papain digestion of the IgG1", "experiment": "BLI; tip ADI-34134 IgG, solution anti-CD3 Fab", "procedure": "(§4) ForteBio affinity measurements were performed generally as previously described (Estep et al., MAbs. 2013 5(2):270-8). Briefly, ForteBio affinity measurements were performed by loading antibody IgG or Fabs on-line onto AHC sensors. Sensors were equilibrated off-line in assay buffer for 30 minutes and then monitored on-line for 60 seconds for baseline establishment. For avid binding measurement, sensors with loaded antibodies were exposed to IgG or Fab solutions for 3 minutes, afterwards they were transferred to assay buffer for 3 minutes for off-rate measurement. Kinetics data were fit using a 1:1 binding model in the data analysis software provided by ForteBio to obtain equilibrium dissociation constant (KD=koff/kₒₙ) values. In each column, tip-immobilized antibodies are listed first and solution antibodies second.\n(§5) CTL-19613 is an IgG1 antibody prepared with anti-CD3 variable domains corresponding with those of clone 12C described in United States Publication Number US 2010/0183615 (e.g., see paragraphs 469-479 and FIG. 25 thereof), which also make up the CD3 binding domain of the bispecific antibody pasotuxizumab. […] In each column, tip-immobilized antibodies are listed first and solution antibodies second."}, "[9]": {"molecular_target": "T9, ADI-26916 Fab", "T9 construct": "anti-CD3 Fab by papain digestion of the IgG", "T9 sequence (VH, as listed by the source, chain 1 of 2)": "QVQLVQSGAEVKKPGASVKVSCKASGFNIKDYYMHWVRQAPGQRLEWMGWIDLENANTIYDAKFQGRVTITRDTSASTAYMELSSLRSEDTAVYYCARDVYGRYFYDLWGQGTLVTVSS", "experiment": "BLI; tip ADI-34134 IgG, solution anti-CD3 Fab", "procedure": "as §4, §5"}, "[10]": {"molecular_target": "T10, ADI-26928 Fab", "T10 construct": "anti-CD3 Fab by papain digestion of the IgG", "T10 sequence (VH, as listed by the source limits assumed, chain 1 of 2)": "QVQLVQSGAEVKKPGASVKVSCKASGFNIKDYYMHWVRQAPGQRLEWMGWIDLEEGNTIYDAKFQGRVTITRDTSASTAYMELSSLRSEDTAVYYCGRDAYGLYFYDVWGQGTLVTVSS", "experiment": "BLI; tip ADI-34134 IgG, solution anti-CD3 Fab", "procedure": "as §4, §5"}, "[11]": {"molecular_target": "T11, ADI-22523 Fab", "T11 construct": "anti-CD3 Fab by papain digestion of the IgG", "T11 sequence (VH, as listed by the source limits assumed, chain 1 of 2)": "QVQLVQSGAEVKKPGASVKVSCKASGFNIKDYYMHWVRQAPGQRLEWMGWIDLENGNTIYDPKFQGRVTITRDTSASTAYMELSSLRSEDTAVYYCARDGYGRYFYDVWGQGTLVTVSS", "T11 sequence (VL, as listed by the source limits assumed, chain 2 of 2)": "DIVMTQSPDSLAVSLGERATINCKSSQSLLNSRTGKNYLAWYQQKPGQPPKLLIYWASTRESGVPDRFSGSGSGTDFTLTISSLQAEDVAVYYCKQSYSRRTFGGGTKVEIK", "experiment": "BLI; tip ADI-34134 IgG, solution anti-CD3 Fab", "procedure": "as §4, §5"}, "[12]": {"molecular_target": "T12, ADI-26913 Fab", "T12 construct": "anti-CD3 Fab by papain digestion of the IgG", "T12 sequence (VH, as listed by the source limits assumed, chain 1 of 2)": "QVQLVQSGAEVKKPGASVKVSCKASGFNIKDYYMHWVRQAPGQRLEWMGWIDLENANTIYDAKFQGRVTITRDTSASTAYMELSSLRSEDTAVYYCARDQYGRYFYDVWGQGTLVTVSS", "experiment": "BLI; tip ADI-34134 IgG, solution anti-CD3 Fab", "procedure": "as §4, §5"}, "[13]": {"molecular_target": "T13, ADI-26927 Fab", "T13 construct": "anti-CD3 Fab by papain digestion of the IgG", "T13 sequence (VH, as listed by the source limits assumed, chain 1 of 2)": "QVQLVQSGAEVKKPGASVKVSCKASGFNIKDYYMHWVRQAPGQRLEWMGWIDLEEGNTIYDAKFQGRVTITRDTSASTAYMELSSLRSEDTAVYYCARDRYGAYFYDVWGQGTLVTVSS", "experiment": "BLI; tip ADI-34134 IgG, solution anti-CD3 Fab", "procedure": "as §4, §5"}, "[14]": {"molecular_target": "T14, ADI-26906 Fab", "T14 construct": "anti-CD3 Fab by papain digestion of the IgG", "T14 sequence (VH, as listed by the source limits assumed, chain 1 of 2)": "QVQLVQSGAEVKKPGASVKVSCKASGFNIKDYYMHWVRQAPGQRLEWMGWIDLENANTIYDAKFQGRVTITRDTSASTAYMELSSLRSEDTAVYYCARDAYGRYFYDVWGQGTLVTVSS", "experiment": "BLI; tip ADI-34134 IgG, solution anti-CD3 Fab", "procedure": "as §4, §5"}, "[15]": {"molecular_target": "T15, ADI-26941 Fab", "T15 construct": "anti-CD3 Fab by papain digestion of the IgG", "T15 sequence (VH, as listed by the source limits assumed, chain 1 of 2)": "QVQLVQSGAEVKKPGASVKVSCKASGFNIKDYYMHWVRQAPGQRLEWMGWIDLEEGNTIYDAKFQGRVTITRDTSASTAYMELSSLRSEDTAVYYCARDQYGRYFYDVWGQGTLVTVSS", "T15 sequence (VL, as listed by the source limits assumed, chain 2 of 2)": "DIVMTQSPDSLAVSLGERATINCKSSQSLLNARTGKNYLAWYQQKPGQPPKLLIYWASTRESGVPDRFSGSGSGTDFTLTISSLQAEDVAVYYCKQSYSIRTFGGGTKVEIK", "experiment": "BLI; tip ADI-34134 IgG, solution anti-CD3 Fab", "procedure": "as §4, §5"}, "[16]": {"molecular_target": "T16, ADI-26920 Fab", "T16 construct": "anti-CD3 Fab by papain digestion of the IgG", "T16 sequence (VH, as listed by the source limits assumed, chain 1 of 2)": "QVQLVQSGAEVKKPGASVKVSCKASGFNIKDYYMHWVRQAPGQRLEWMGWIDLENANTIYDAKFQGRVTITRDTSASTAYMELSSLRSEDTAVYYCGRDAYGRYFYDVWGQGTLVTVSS", "experiment": "BLI; tip ADI-34134 IgG, solution anti-CD3 Fab", "procedure": "as §4, §5"}, "[17]": {"molecular_target": "T17, ADI-26921 Fab", "T17 construct": "anti-CD3 Fab by papain digestion of the IgG", "T17 sequence (VH, as listed by the source limits assumed, chain 1 of 2)": "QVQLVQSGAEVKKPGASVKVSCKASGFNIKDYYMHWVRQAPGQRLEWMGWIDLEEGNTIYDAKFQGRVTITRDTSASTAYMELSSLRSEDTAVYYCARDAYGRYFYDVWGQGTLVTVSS", "experiment": "BLI; tip ADI-34134 IgG, solution anti-CD3 Fab", "procedure": "as §4, §5"}, "[18]": {"molecular_target": "T18, ADI-76357", "T18 construct": "anti-CD3 antibody made in CHO cells, captured by anti-human Fc", "T18 sequence (VH, as listed by the source, chain 1 of 2)": "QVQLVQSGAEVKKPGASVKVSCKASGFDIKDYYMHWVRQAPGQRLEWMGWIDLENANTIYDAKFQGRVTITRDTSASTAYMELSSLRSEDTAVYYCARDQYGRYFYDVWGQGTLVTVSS", "experiment": "SPR Carterra avidity, CHO anti-ID", "procedure": "as §1, §2, §3"}, "[19]": {"molecular_target": "T19, ADI-26924", "T19 construct": "anti-CD3 antibody made in CHO cells, captured by anti-human Fc", "T19 sequence (VH, as listed by the source, chain 1 of 2)": "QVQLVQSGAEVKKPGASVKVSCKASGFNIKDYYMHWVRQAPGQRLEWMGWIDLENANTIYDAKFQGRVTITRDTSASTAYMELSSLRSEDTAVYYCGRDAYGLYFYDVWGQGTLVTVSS", "experiment": "SPR Carterra avidity, CHO anti-ID", "procedure": "as §1, §2, §3"}, "[20]": {"molecular_target": "T20, ADI-26920 IgG", "T20 construct": "anti-CD3 IgG", "experiment": "SPR Carterra avidity, CHO anti-ID", "procedure": "as §1, §2, §3"}, "[21]": {"molecular_target": "T21, ADI-67447", "T21 construct": "anti-CD3 antibody made in CHO cells, captured by anti-human Fc", "T21 sequence (VH, as listed by the source limits assumed, chain 1 of 2)": "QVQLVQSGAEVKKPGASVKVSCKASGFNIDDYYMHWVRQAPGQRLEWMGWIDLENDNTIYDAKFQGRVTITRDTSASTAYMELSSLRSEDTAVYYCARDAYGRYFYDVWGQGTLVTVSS", "experiment": "SPR Carterra avidity, CHO anti-ID", "procedure": "as §1, §2, §3"}, "[22]": {"molecular_target": "T22, ADI-26954 Fab", "T22 construct": "anti-CD3 Fab by papain digestion of the IgG", "T22 sequence (VH, as listed by the source limits assumed, chain 1 of 2)": "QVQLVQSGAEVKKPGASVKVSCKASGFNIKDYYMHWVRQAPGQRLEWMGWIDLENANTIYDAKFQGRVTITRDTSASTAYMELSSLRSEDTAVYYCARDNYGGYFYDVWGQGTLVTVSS", "T22 sequence (VL, as listed by the source limits assumed, chain 2 of 2)": "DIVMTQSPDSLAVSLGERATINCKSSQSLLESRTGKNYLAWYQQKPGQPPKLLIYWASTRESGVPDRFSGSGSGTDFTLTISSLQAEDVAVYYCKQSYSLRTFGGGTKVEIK", "experiment": "BLI; tip ADI-34145 IgG, solution anti-CD3 Fab", "procedure": "as §4\n(§6) In each column, tip-immobilized antibodies are listed first and solution antibodies second."}, "[23]": {"molecular_target": "T11, ADI-22523 Fab", "experiment": "BLI; tip ADI-34145 IgG, solution anti-CD3 Fab", "procedure": "as §4, §6"}, "[24]": {"molecular_target": "T12, ADI-26913 Fab", "experiment": "BLI; tip ADI-34145 IgG, solution anti-CD3 Fab", "procedure": "as §4, §6"}, "[25]": {"molecular_target": "T14, ADI-26906 Fab", "experiment": "BLI; tip ADI-34145 IgG, solution anti-CD3 Fab", "procedure": "as §4, §6"}}, "data": [{"binder": "B1", "values": [{"measurement": "Kd", "setting": "[1]", "result": 0.21, "unit": "nM"}, {"measurement": "Kd", "setting": "[2]", "result": 1.3, "unit": "nM"}, {"measurement": "Kd", "setting": "[3]", "result": 0.54, "unit": "nM"}, {"measurement": "Kd", "setting": "[4]", "result": 0.64, "unit": "nM"}, {"measurement": "Kd", "setting": "[5]", "result": 0.68, "unit": "nM"}, {"measurement": "Kd", "setting": "[6]", "result": 0.23, "unit": "nM"}, {"measurement": "Kd", "setting": "[7]", "result": 1.2, "unit": "nM"}, {"measurement": "binding result", "setting": "[8]", "result": "no binding"}, {"measurement": "Kd", "setting": "[9]", "result": 110, "unit": "nM"}, {"measurement": "Kd", "setting": "[10]", "result": 182, "unit": "nM"}, {"measurement": "Kd", "setting": "[11]", "result": 4.46, "unit": "nM"}, {"measurement": "Kd", "setting": "[12]", "result": 86.5, "unit": "nM"}, {"measurement": "Kd", "setting": "[13]", "result": 25.6, "unit": "nM"}, {"measurement": "Kd", "setting": "[14]", "result": 36, "unit": "nM"}, {"measurement": "Kd", "setting": "[15]", "result": 112, "unit": "nM"}, {"measurement": "Kd", "setting": "[16]", "result": 29.8, "unit": "nM"}, {"measurement": "Kd", "setting": "[17]", "result": 92.7, "unit": "nM"}]}, {"binder": "B2", "values": [{"measurement": "Kd", "setting": "[18]", "result": 5.6, "unit": "nM"}, {"measurement": "Kd", "setting": "[19]", "result": 3.5, "unit": "nM"}, {"measurement": "Kd", "setting": "[20]", "result": 15, "unit": "nM"}, {"measurement": "Kd", "setting": "[21]", "result": 14, "unit": "nM"}, {"measurement": "Kd", "setting": "[22]", "result": 19.4, "unit": "nM"}, {"measurement": "Kd", "setting": "[23]", "result": 4.13, "unit": "nM"}, {"measurement": "Kd", "setting": "[24]", "result": 7.52, "unit": "nM"}, {"measurement": "Kd", "setting": "[25]", "result": 3.55, "unit": "nM"}]}]}
